Measured values reported in patent US20060110401A1, “Mixture of peptides from c and ns3 proteins of the hepatitis c virus and applications thereof” (priority 2002, published 2006).
No end group written: not given here.

T1: HLA-DP401 (DPB1*0401) (human), P20036
T1 chain 1: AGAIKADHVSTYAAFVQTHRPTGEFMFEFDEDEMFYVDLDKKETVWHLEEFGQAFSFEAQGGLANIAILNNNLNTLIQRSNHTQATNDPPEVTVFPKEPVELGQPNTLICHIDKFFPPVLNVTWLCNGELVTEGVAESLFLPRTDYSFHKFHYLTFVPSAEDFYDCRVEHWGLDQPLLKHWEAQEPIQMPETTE
T1 chain 2: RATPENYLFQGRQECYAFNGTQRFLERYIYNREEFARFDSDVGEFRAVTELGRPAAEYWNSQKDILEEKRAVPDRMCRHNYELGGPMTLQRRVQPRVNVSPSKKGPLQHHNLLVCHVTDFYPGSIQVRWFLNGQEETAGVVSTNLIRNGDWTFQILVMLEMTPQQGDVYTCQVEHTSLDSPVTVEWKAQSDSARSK

T2: HLA-DR7 (DRB1*0701) (human)
T2 chain 1: not shown
T2 chain 2: not shown

T3: HLA-DRB4 (DRB4*0101) (human)
T3 chain 1: not shown
T3 chain 2: not shown

T4: HLA-DR15 (DRB1*1501) (human)
T4 chain 1: not shown
T4 chain 2: not shown

T5: HLA-DR3 (DRB1*0301) (human)
T5 chain 1: not shown
T5 chain 2: not shown

T6: HLA-DR13 (DRB1*1301) (human)
T6 chain 1: not shown
T6 chain 2: not shown

T7: HLA-DR1 (DRB1*0101) (human)
T7 chain 1: not shown
T7 chain 2: not shown

T8: HLA-DR11 (DRB1*1101) (human)
T8 chain 1: not shown
T8 chain 2: not shown

T9: HLA-DR4 (DRB1*0401) (human)
T9 chain 1: not shown
T9 chain 2: not shown

T10: HLA-DRB5 (DRB5*0101) (human)
T10 chain 1: not shown
T10 chain 2: not shown

B1: 18N 1246-1275 (peptide)
chain: AQGYKVLVLNPSVAATLGFGAYMSKAHGID
B2: 27N 1495-1513 (peptide)
chain: KPGIYRFVAPGERPSGMFD
B3: 24N 1404-1432 (peptide)
chain: AAKLVALGINAVAYYRGLDVSVIPTSGDV
B4: 13N 1127-1153 (peptide)
chain: SSDLYLVTRHADVIPVRRRGDSRGSLL
B5: 2C 31-57 (peptide)
chain: VGGVYLLPRRGPRLGVRATRKTSERSQ
B6: 15N 1174-1195 (peptide)
chain: GHAVGIFRAAVCTRGVAKAVDF
B7: 17N 1206-1239 (peptide)
chain: RSPVFTDNSSPPVVPQSFQVAHLHAPTGSGKSTK
B8: 1C 19-47 (peptide)
chain: PQDVKFPGGGQIVGGVYLLPRRGPRLGVR
B9: 8N 1007-1037 (peptide)
chain: GREILLGPADGMVSKGWRLLAPITAYAQQTR
B10: 19N 1275-1304 (peptide)
chain: DPNIRTGVRTITTGSPITYSTYGKFLADGG
B11: 22N 1362-1387 (peptide)
chain: IEEVALSTTGEIPFYGKAIPLEVIKG
B12: 10N 1052-1072 (peptide)
chain: KNQVEGEVQIVSTAAQTFLAT
B13: 29N 1569-1583 (peptide)
peptide: DAHFLSQTKQSGENL
modifications: not checked
B14: 9N 1036-1055, P26664 1036-1055 (peptide)
peptide: TRGLLGCIITSLTGRDKNQV
modifications: not checked
B15: 9N 1041-1055 (peptide)
peptide: GCIITSLTGRDKNQV
modifications: not checked
B16: B1 21-36 (nonbiotinylated) (peptide)
peptide: TERVRLVTRHIYNREE
modifications: not fully specified
B17: 3C 93-107 (peptide)
peptide: WAGWLLSPRGSRPSW
modifications: not checked

Biological target: T1, HLA-DP401 (DPB1*0401) (human), P20036
Assay: competition binding
Conditions: chains peptide; modification not given

Binder | IC50 [nM]
B1 | > 100000
B2 | > 100000
B3 | 32700
B4 | > 100000
B5 | > 100000
B6 | 17800

biological target: HLA-DR4 (DRB1*0401) (human); assay: competition binding; conditions: chains peptide; modification not given

Binder | IC50 [nM]
B7 | 425
B1 | 5
B2 | 1250
B4 | 3500
B8 | 70000
B9 | 10
B10 | 500

biological target: HLA-DR13 (DRB1*1301) (human); assay: competition binding; conditions: chains peptide; modification not given

Binder | IC50 [nM]
B7 | > 100000
B1 | 900
B2 | > 100000
B4 | 300
B9 | 1250
B10 | > 100000

biological target: HLA-DP402 (DPB1*0402) (human), P20036; assay: competition binding; conditions: chains peptide; modification not given

Binder | IC50 [nM]
B2 | > 100000
B3 | 7040
B5 | > 100000

biological target: HLA-DRB5 (DRB5*0101) (human); assay: competition binding; conditions: chains peptide; modification not given

Binder | IC50 [nM]
B7 | 350
B1 | 1250
B2 | 2
B4 | 500
B8 | 9

biological target: HLA-DR1 (DRB1*0101) (human); assay: competition binding; conditions: chains peptide; modification not given

Binder | IC50 [nM]
B11 | 33
B1 | 1
B2 | 163
B4 | 700
B8 | 350
B10 | 150
B12 | 400

biological target: HLA-DR15 (DRB1*1501) (human); assay: competition binding; conditions: chains peptide; modification not given

Binder | IC50 [nM]
B7 | 10000
B1 | 58
B2 | 150
B9 | 30
B10 | 550

biological target: HLA-DRB3 (DRB3*0101) (human); assay: competition binding; conditions: chains peptide; modification not given

Binder | IC50 [nM]
B1 | > 30000
B2 | 40000
B4 | > 10000
B8 | > 100000
B10 | 150
B12 | 10000

biological target: HLA-DR3 (DRB1*0301) (human); assay: competition binding; conditions: chains peptide; modification not given

Binder | IC50 [nM]
B2 | > 100000
B4 | > 100000
B8 | > 100000
B9 | 200
B10 | > 100000

biological target: HLA-DRB4 (DRB4*0101) (human); assay: competition binding; conditions: chains peptide; modification not given

Binder | IC50 [nM]
B2 | 138
B8 | 6000
B9 | 60
B10 | 3500
B12 | 400

biological target: HLA-DR11 (DRB1*1101) (human); assay: competition binding; conditions: chains peptide; modification not given

Binder | IC50 [nM]
B7 | 550
B1 | 40
B4 | 17
B8 | 58
B9 | 1
B12 | 200

biological target: HLA-DR7 (DRB1*0701) (human); assay: competition binding; conditions: chains peptide; modification not given

Binder | IC50 [nM]
B4 | 17
B12 | 7

Biological target: T2, HLA-DR7 (DRB1*0701) (human)
Assay: competition ELISA, purified HLA II; tracer biotinylated YKL
Conditions: not given

Binder | IC50 [nM]
B13 | 3000
B14 | 2600

Biological target: T3, HLA-DRB4 (DRB4*0101) (human)
Assay: competition ELISA, purified HLA II; tracer biotinylated E2/E168
Conditions: not given

Binder | IC50 [nM]
B15 | 65000
B14 | 1000

Biological target: T4, HLA-DR15 (DRB1*1501) (human)
Assay: competition ELISA, purified HLA II; tracer biotinylated A3 152-166
Conditions: not given

Binder | IC50 [nM]
B13 | 2800
B15 | 525
B14 | 5500

Biological target: T5, HLA-DR3 (DRB1*0301) (human)
Assay: competition ELISA, purified HLA II; tracer biotinylated MT 2-16
Conditions: not given

Binder | IC50 [nM]
B15 | 62500

Biological target: T6, HLA-DR13 (DRB1*1301) (human)
Assay: competition ELISA, purified HLA II; unlabeled peptide against its own biotinylated tracer
Conditions: not given

Binder | IC50 [nM]
B16 | 330

Biological target: T7, HLA-DR1 (DRB1*0101) (human)
Assay: competition ELISA, purified HLA II; tracer biotinylated HA 306-318
Conditions: not given

Binder | IC50 [nM]
B13 | 950
B15 | 190
B14 | 51
B9 | 2
B17 | 6330

Biological target: T8, HLA-DR11 (DRB1*1101) (human)
Assay: as above
Conditions: not given

Binder | IC50 [nM]
B13 | 22
B15 | 2600
B14 | 700

Biological target: T9, HLA-DR4 (DRB1*0401) (human)
Assay: as above
Conditions: not given

Binder | IC50 [nM]
B13 | 10500
B15 | 2900
B14 | 950

Biological target: T10, HLA-DRB5 (DRB5*0101) (human)
Assay: as above
Conditions: not given

Binder | IC50 [nM]
B13 | 21000
B15 | 11
B14 | 53
